Measured values as given in patent US20250163186A1 (PHYLAXIS BIOSCIENCE, published 2025).

Columns and labels:
human IgE [1] = target: T1, human IgE (human, UniProt P01854 1-428); assay: ELISA, plate-coated IgE
T1 construct: written under the same molecule; also called IgE (Abcam ab65866); soluble IgE

[2] = target: human IgM (Novus, NBP1-97056) (human, UniProt P01871-1 1-453); assay: ELISA, plate-coated immunoglobulin
[3] = target: human IgE pre-complexed to FCER1A on the surface of human mast cells (human, UniProt P01854-1 1-428); assay: flow cytometry on IgE-loaded human mast cells
human IgE [4] = target: T1, human IgE; assay: SPR (Biacore T200, 37 C), IgE medium density (~114 RU) on protein L, 1:1 fit
Description: (§1) All experiments were done using a Biacore T200 instrument with a CM5 chip at 37° C. except immobilization of Protein L, which was done at 25° C.
(§2) For this study Flow Cell (FC) 1 was used as the reference for FC2, FC3 and FC4. Protein L (15 mg/ml stock concentration) was diluted (1:50 dilution, 0.3 mg/ml diluted concentration) in 10 mM sodium acetate buffer at pH 4.5 and immobilized onto all FCs to a level of ˜14000 RU, using the standard amine coupling chemistry. HBS-P (10 mM Hepes, pH 7.4, 150 mM NaCl, 0.05% v/v surfactant P20) was used as the immobilization running buffer. […] HBS-P was used as the capture running buffer. Overnight kinetics were performed for all analytes in the presence of HBS-P. The flow rate of all analyte solutions was maintained at 50 μL/min. The contact and dissociation times used were 120 seconds and 600 seconds, respectively. Glycine pH 1.5 was injected for 20 seconds for surface regeneration. This regeneration condition takes away all captured ligand. Therefore, fresh ligand solution was captured in the beginning of each injection cycle. Injected analyte concentrations are from 80 nM to 0.01953 nM (four-fold dilutions). All analytes were injected in duplicate.

human IgE [5] = target: T1, human IgE; assay: flow cytometry, blocks binding of 5 nM IgE to FCER1A on human mast cells
Description: After this period of time, the cells were expanded in volume with StemPro™-34 SFM cell culture media that contained only IL-6 and rhSCF for a duration of 8 weeks. By week 10 at full differentiation, these cells expressed a combination of surface cell receptors that are distinct to human mast cells, including FCER1A. The in vitro derived mast cells are also capable of being activated and undergoing degranulation upon crosslinking of FCER1A.
Eleven point, four-fold dilutions (starting at 500 nM, in FACS buffer) of the complexed antibodies were added to the mast cells (25k cells/well) and incubated for 60 minutes at room temperature. […] Next, the mast cells were washed twice, and bound antibodies were detected via flow cytometry (Novocyte). The data was plotted using GraphPad Prism analysis software. The IC₅₀s were determined by the default curve fitting [Inhibitor] vs. response as described above.

[6] = target: recombinant human anti-hapten dinitrophenol (DNP) IgE (rhIgE) (human, UniProt P01854-1 1-428); assay: cell-based or functional assay
human IgE [7] = target: T1, human IgE; assay: SPR (Biacore T200, 37 C), IgE low density (~14 RU) on protein L, 1:1 fit
Description: as §1, §2

human IgE [8] = target: T1, human IgE; assay: SPR, blocks binding of 5 nM IgE to captured FCER1A
Description: as §1
Sensorgrams from the overnight kinetics were plotted for further evaluation.

human IgE [9] = target: T1, human IgE; assay: ELISA, human IgE coated
Description: (§3) The following day, plates were blocked with 1% BSA in PBS for 30 min-1 hour. […] Afterwards, the plates were PBST washed with the plate washer and detected with Peroxidase AffiniPure Donkey Anti-Human IgG, Fcγ fragment specific secondary detection antibody. Room temperature TMB was added and OD650 was measured using the Emax plate reader. […] Room temperature TMB was added and OD650 was measured using the Emax plate reader. The data was plotted and analyzed using GraphPad Prism analysis software.

human IgE [10] = target: T1, human IgE; assay: ELISA, plate-coated IgE, apparent Kd (one site fit)
human IgE [11] = target: T1, human IgE; assay: ELISA, blocks binding of 5 nM IgE to coated FCER1A
Description: as §3

human IgE [12] = target: T1, human IgE; assay: SPR (Biacore T200, 37 C), IgE high density (~1400 RU) on protein L, 1:1 fit
Description: as §1, §2

T1 sequence (P01854 other isoform, or with tags, fused parts or gaps limits assumed, form in doubt): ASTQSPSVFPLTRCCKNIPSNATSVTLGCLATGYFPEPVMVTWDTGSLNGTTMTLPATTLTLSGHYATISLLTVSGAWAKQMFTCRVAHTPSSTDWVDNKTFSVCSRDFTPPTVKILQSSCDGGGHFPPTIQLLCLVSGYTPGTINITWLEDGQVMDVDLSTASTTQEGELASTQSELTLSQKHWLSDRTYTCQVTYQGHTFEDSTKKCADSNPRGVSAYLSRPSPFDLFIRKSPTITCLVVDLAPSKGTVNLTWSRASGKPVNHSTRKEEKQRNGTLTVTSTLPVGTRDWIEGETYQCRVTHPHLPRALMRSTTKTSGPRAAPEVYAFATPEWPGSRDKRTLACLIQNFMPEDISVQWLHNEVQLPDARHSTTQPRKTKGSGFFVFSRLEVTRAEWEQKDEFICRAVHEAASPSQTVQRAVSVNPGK
Chain of recombinant human anti-hapten dinitrophenol (DNP) IgE (rhIgE) (P01854 other isoform, or with tags, fused parts or gaps): as the sequence (P01854 other isoform, or with tags, fused parts or gaps limits assumed, form in doubt) above
Chain of human IgE pre-complexed to FCER1A on the surface of human mast cells (P01854 other isoform, or with tags, fused parts or gaps): as the sequence (P01854 other isoform, or with tags, fused parts or gaps limits assumed, form in doubt) above
Chain of human IgM (Novus, NBP1-97056) (P01871 other isoform, or with tags, fused parts or gaps): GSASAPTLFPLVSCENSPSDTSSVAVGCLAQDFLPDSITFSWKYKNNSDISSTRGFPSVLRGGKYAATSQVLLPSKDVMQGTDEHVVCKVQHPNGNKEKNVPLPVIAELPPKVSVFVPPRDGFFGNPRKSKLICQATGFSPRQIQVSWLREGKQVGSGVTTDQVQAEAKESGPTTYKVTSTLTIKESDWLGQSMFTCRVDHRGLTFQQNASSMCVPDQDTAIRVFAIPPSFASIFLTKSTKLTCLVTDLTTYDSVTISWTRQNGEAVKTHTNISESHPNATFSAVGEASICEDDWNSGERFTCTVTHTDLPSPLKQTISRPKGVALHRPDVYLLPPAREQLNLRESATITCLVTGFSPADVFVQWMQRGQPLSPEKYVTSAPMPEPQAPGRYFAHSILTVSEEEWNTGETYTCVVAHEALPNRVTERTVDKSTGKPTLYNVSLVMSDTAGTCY

Bmax (OD 650 nm) (human IgE [1]): 0.873 OD 650 nm
binding result [2]: no binding
Kd (human IgE [4]): 600 pM
koff (human IgE [4]): 0.000207 s⁻¹
kon (human IgE [4]): 373000 M⁻¹ s⁻¹
IC50 (human IgE [5]): 610 pM
Activation IC50 (nM), CD63 on mast cells [6]: 3.09 nM
Kd (human IgE [7]): 600 pM
koff (human IgE [7]): 0.000449 s⁻¹
kon (human IgE [7]): 422000 M⁻¹ s⁻¹
IC50 (human IgE [8]): ~3400 pM
Bmax (human IgE [9]): 0.808 OD 650
Kd (human IgE [9]): 110 pM
Kd (human IgE [10]): 266 pM
IC50 (human IgE [11]): 7630 pM
Kd (human IgE [12]): 1100 pM
koff (human IgE [12]): 0.000258 s⁻¹
kon (human IgE [12]): 242000 M⁻¹ s⁻¹
B1: hzB10v40-IgG1 DSELF Fc region (cx13032) (Fc fusion)
chain: EVQLLESGGGEVQPGGSLRLSCVASGLTFSSYNMGWLRQAPGKEREFVGLSGSSSTSTYYAESVKGRFTISRDNAKNTVYLQMTSLRAEDTAVYYCAARRLLSTYWSDRSWDFWGQGTLVTVEPGGGGDKTHTCPPCPAPELLDGPSVFLFPPKPKDTLMISRTPEVTCVVVDVEHEDPEVKFNWYVDGVEVHNAKTKPREEQYNSTYRVVSVLTVLHQDWLNGKEYKCKVSNKAFPAPIEKTISKAKGQPREPQVYTLPPSREEMTKNQVSLTCLVKGFYPSDIAVEWESNGQPENNYKTTPPVLDSDGSFFLYSKLTVDKSRWQQGNVFSCSVMHEALHNHYTQKSLSLSPGK
notes: hzB10v40 VHH + GGGG linker + IgG1 DSELF Fc; described as bivalent; also called hzB10v40-DSELF; hzB10v40-IgG DSELF Fc
binding result [3]: no binding (tested: titrated from 1000 nM)
